Results from patent publication US20160264647A1 (US Dept. of Health and Human Services, published 2016).

T1: MERS-CoV spike glycoprotein (S) (MERS-CoV, UniProt K9N5Q8 18-1353)
T1 sequence: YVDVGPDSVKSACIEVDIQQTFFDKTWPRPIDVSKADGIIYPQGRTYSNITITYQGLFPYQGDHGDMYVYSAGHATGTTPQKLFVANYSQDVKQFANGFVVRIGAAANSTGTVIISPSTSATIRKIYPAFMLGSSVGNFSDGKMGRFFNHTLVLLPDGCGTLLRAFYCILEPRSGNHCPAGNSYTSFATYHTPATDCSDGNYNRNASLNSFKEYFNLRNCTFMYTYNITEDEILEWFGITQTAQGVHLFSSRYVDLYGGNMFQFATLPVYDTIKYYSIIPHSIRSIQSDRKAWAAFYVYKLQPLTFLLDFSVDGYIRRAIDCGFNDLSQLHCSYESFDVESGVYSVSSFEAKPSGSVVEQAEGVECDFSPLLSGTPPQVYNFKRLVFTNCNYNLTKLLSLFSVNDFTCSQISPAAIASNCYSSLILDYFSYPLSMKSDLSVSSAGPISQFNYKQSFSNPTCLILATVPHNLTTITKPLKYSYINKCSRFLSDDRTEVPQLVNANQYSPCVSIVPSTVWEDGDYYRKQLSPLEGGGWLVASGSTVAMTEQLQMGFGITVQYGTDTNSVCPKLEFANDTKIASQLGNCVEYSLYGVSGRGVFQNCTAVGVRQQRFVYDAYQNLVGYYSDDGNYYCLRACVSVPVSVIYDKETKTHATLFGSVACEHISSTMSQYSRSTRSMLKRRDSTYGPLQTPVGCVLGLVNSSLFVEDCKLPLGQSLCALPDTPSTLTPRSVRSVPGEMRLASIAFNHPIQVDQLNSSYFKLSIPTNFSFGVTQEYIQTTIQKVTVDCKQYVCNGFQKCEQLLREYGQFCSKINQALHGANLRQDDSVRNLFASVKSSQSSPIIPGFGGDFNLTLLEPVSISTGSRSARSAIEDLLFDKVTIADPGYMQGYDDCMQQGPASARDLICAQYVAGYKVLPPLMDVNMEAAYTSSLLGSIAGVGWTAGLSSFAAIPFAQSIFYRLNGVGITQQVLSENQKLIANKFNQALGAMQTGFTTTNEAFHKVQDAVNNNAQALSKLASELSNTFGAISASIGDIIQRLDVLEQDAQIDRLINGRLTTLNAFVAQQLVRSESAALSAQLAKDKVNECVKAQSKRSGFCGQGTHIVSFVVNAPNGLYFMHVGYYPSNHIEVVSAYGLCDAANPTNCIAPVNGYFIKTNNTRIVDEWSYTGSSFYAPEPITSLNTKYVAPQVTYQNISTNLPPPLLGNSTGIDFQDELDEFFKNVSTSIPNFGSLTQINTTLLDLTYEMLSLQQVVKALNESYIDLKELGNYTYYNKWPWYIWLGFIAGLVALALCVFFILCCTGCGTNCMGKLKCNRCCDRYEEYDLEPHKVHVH

B1: IgG1 m337 (antibody, V domains shown)
VH: QVQLQQSGAEVKKPGSSVKVSCKASGGTFSSYTISWVRQAPGQGLEWMGRIIPIFGTANYAQKFQGRVTITADKSTSTAYMELSSLRSEDTAVYYCARDLGPGGDSSGYYYGPGAFDIWGQGTMVTVSS
VL: not shown
B2: IgG1 m338 (antibody, V domains shown)
VH: QVQLQQSGAEVKKRGSSVKVSCKASGGTFSSYTISWVRQAPGQGLEWMGRIIPILGIANYAQKFQGRVTITADKSTSTAYMELSSLRSEDTAVYYCARDLYDSSGYYRNTDAFDIWGQGTMVTVSS
VL: EIVMTQSPVTLSLSPGERATLSCRASQSVSSYLAWYQQKPGQAPRLLIYDASNRATGIPARFSGSGSGTDFTLTISSLEPEDFAVYYCQQYGSSPWTFGQGTKVEIKR
B3: IgG1 m336 (antibody, V domains shown)
VH: QVQLVQSGAEVKKPGSSVKVSCKASGGTFSSYAISWVRQAPGQGLEWMGGIIPIFGTASYAQKFQGRVTITADKSTSTAYMELSSLRSEDTAVYYCARVGYCSSTSCNRGAFDIWGQGTMVTVSS
VL: DIQLTQSPSSLSASVGDRVTITCRASQGIRNDLGWYQQKPGKAPKLLIYAASSLQSGVPSRFSGSGSGTDFTLTISSLQPEDFATYYCQQLNSYPLTFGGGTKVEIKR

These binders were tested against T1, MERS-CoV spike glycoprotein (S) (assay: cell-based or functional assay).

| Binder | MERS-CoV pseudovirus neutralization (inhibition of viral entry) at 0.1 µg/ml [%] |
| --- | --- |
| B1 | > 95 |
| B2 | > 95 |
| B3 | > 95 |
